{"source": "patent US11667697", "about": "(VANDERBILT UNIVERSITY, dated 2023)", "binders": {"B1": {"name": "VACV-315 (antibody, V domains shown)", "VH": "EVQLLESGGGLVQPGGSLKLSCAASGFIFSNYAMGWVRQAPGKGLEWVSALSASDGVTSYADSVKGRFTISRDNSKNTMYLQMNRLRTEDTAIYFCAKGRARVNNIYRYFDHWGQGTLVTVSS", "VL": "QSVLTQPASVSGSPGQSITISCTGTSSDVGAYTFVSWYQHHPGKAPKLIIYEVSNRPSGVSDRFSGSKSGNTASLTISGLQAEDEADYYCNSYTTTSPWVFGGGTQLTVL", "notes": "human IgG1, anti-H3"}, "B2": {"name": "VACV-22 (antibody, V domains shown)", "VH": "QVQLVESGGGVVQPGRSLRLSCAASGFTFSNSGMHWVRQAPGKGLEWVAVIWFDGTNKYYADSVKGRFTISRDNSKNTLYLQMNSLRAEDTAVYYCARVPCGGDCYSGYLQHWGQGTLVTVSS", "VL": "AIVMTQSPATLSVSPGERATLSCRASQSVSSTLAWYQQKPGQAPRLLIYGASTKATGIPARFSGSGSGTEFTLTISSLQSEDFAVYYCQHYNNWPPLLTFGGGTKVDIK", "notes": "human IgG1, anti-A33"}, "B3": {"name": "MPXV-76 (antibody, V domains shown)", "VH": "EVQLVESGGGLVKPGESLKISCAASGFSFNNAWMNWVRQAPGKGLEWVGRIKTHADGGTTDYAAPVTGRFTISRDDSKNTLSLQMSSLKTEDTAVYYCTTSFTFPRRIFAYWGQGTLV", "VL": "EIVLTQSPATLSLSPGERATLSCRASQSVSSYLAWYQQKPGQAPRLLIYDTSNRATGIPARFSGSGSGTDFTLTISSLEPEDLAVYYCQLRNSWPPTFGPGTKVDIK", "notes": "human IgG1, anti-H3"}, "B4": {"name": "VACV-80 (antibody, V domains shown)", "VH": "EVQLVESGGGLVQPGESLKISCAATGFTFSSYWMHWVRQAPGKGLVWVSGINSDGSSTSYADSVKGRFTIARDNAKGTLYLQMNSLRAEDTAVYYCARVGAVRIAAAAPDYWGQGTLVTVSS", "VL": "not shown", "notes": "human IgG1, anti-A33"}, "B5": {"name": "MPXV-56 (antibody, V domains shown)", "VH": "QVQLQQSGPGLVKPSQTLSLTCAISGDSVSSNSAAWIWIRQSPSRGLEWLGTTYYRSEWYSDYPASVKSRVTINADTSKNQFSLQLNSVTPEDTAVYYCARITVGYNSPHLRVTRGWLDPWGPGNP", "VL": "not shown", "notes": "human IgG2, anti-A33"}, "B6": {"name": "VACV-33 (antibody, V domains shown)", "VH": "QLQLQESGPGLVKPSETLSLTCTVSGGSISSGGYYWGWIRQPPGKGLEWIASIYYSGSTYYNPSLKSRVTISVDTSKTQFSLKLSSVTAADTAVYYCARQSSSTGGFHYWGQGTLVTVSS", "VL": "QSVLTQPPSVSGAPGQRVTISCTGSSSNIGAGYDVHWYQHLPGTAPKLLIYGNSNRPSGVPDRFSGSKSGTSASLAITGLQAEDEANYYCQSYDSSLSGREVFGGGTQLTVL", "notes": "human IgG1, anti-L1"}, "B7": {"name": "VACV-304 (antibody, V domains shown)", "VH": "EVQLVESGGGLVQPGGSLRLSCVVSGFTFSNYWMSWVRQAPGKGLEWVANIKQDGSKKYYVDSVTGRFTISRDNAKNSLYLQMNSLRAEDTAVYYCATLNLELAVDAISEALKWGQGTLVTVSS", "VL": "SYELTQPPSVSVSPGQTARITCSGDALPKQFAYWYQQKPGQAPVVMIYKDSERPSGIPERFSGSSSGTTVTLTISGVQAEDEADYYCQSVDNSGTYEVFGGGTQLTVL", "notes": "human IgG1, anti-D8"}, "B8": {"name": "MPXV-26 (antibody, V domains shown)", "VH": "QVQLVQSGGGLIQPGGSLRLSCVVSGFNVATNYMSWVRQAPGKGLEWVSVIYSGGSTYYADSVKGRFTISRDNSKNTVFLQMNSLRPEDTAAYYCAKGGGLGLDYWGQGTLVTVSS", "VL": "QSALTQPPSASGSPGQSVTITCTGSSSDVGGYNYVSWYQQHPGKAPKVVIYEVNKRPSGVPHRFSGSKSGNTASLTVSGLQAEDEADYYCSSYAGTETVAFGGGTKLTVL", "notes": "human IgG1, anti-L1"}}, "key": {"VACV H3 protein [1]": {"molecular_target": "T1, VACV H3 protein (vaccinia virus, UniProt P07240 1-278)", "T1 sequence": "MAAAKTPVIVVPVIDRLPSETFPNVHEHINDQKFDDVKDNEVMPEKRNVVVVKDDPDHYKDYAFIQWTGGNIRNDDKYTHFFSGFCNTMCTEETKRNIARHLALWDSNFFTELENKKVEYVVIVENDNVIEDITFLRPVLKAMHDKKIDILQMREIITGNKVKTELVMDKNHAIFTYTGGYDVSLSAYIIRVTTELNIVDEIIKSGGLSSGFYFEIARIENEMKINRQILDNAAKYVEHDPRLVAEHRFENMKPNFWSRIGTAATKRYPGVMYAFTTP", "experiment": "cell-based or functional assay"}, "VACV H3 protein [2]": {"molecular_target": "T1, VACV H3 protein", "experiment": "lysate ELISA"}, "VACV H3 protein [3]": {"molecular_target": "T1, VACV H3 protein", "experiment": "purified antigen ELISA"}, "VACV A33 protein [4]": {"molecular_target": "T2, VACV A33 protein (vaccinia virus, UniProt P68617 58-185)", "experiment": "cell-based or functional assay"}, "VACV A33 protein [5]": {"molecular_target": "T2, VACV A33 protein", "experiment": "lysate ELISA"}, "VACV A33 protein [6]": {"molecular_target": "T2, VACV A33 protein", "experiment": "purified antigen ELISA"}, "VACV L1 protein [7]": {"molecular_target": "T3, VACV L1 protein (vaccinia virus, UniProt P07612 1-185)", "T3 sequence": "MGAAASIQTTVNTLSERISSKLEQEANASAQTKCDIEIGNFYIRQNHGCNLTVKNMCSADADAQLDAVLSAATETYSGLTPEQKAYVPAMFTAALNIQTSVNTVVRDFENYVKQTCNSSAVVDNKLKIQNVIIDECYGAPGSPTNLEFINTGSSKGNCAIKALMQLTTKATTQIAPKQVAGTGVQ", "experiment": "cell-based or functional assay"}, "VACV L1 protein [8]": {"molecular_target": "T3, VACV L1 protein", "experiment": "purified antigen ELISA"}, "VACV D8 protein [9]": {"molecular_target": "T4, VACV D8 protein (vaccinia virus, UniProt P04195 1-261)", "T4 sequence": "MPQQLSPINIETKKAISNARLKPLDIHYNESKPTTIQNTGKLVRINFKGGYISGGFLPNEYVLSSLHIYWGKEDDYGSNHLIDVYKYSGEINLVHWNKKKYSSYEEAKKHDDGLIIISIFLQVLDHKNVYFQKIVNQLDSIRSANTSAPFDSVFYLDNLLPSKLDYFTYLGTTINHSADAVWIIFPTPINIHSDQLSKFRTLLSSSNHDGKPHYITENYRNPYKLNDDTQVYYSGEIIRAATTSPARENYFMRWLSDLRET", "experiment": "cell-based or functional assay"}, "VACV D8 protein [10]": {"molecular_target": "T4, VACV D8 protein", "experiment": "lysate ELISA"}, "VACV D8 protein [11]": {"molecular_target": "T4, VACV D8 protein", "experiment": "purified antigen ELISA"}}, "data": [{"binder": "B1", "values": [{"measurement": "PRNT Emax, VACV MV+C'", "setting": "VACV H3 protein [1]", "value": 72, "unit": "%"}, {"measurement": "PRNT IC50, VACV MV+C'", "setting": "VACV H3 protein [1]", "value": 2.2, "unit": "µg/mL"}, {"measurement": "EC50", "setting": "VACV H3 protein [2]", "value": 0.002, "unit": "µg/mL"}, {"measurement": "EC50", "setting": "VACV H3 protein [3]", "value": 0.2, "unit": "µg/mL"}]}, {"binder": "B2", "values": [{"measurement": "PRNT Emax, VACV EV+C'", "setting": "VACV A33 protein [4]", "value": 87, "unit": "%"}, {"measurement": "PRNT IC50, VACV EV+C'", "setting": "VACV A33 protein [4]", "value": 9.7, "unit": "µg/mL"}, {"measurement": "EC50", "setting": "VACV A33 protein [5]", "value": "> 0.008", "unit": "µg/mL"}, {"measurement": "EC50", "setting": "VACV A33 protein [6]", "value": 0.03, "unit": "µg/mL"}]}, {"binder": "B3", "values": [{"measurement": "EC50", "setting": "VACV H3 protein [2]", "value": 0.008, "unit": "µg/mL"}]}, {"binder": "B4", "values": [{"measurement": "EC50", "setting": "VACV A33 protein [5]", "value": "> 69", "unit": "µg/mL"}, {"measurement": "EC50", "setting": "VACV A33 protein [6]", "value": 0.065, "unit": "µg/mL"}]}, {"binder": "B5", "values": [{"measurement": "PRNT Emax, VACV EV+C'", "setting": "VACV A33 protein [4]", "value": 56, "unit": "%"}, {"measurement": "PRNT IC50, VACV EV+C'", "setting": "VACV A33 protein [4]", "value": 0.16, "unit": "µg/mL"}, {"measurement": "EC50", "setting": "VACV A33 protein [5]", "value": "> 0.07", "unit": "µg/mL"}, {"measurement": "EC50", "setting": "VACV A33 protein [6]", "value": 0.06, "unit": "µg/mL"}]}, {"binder": "B6", "values": [{"measurement": "PRNT Emax, VACV MV", "setting": "VACV L1 protein [7]", "value": 56, "unit": "%"}, {"measurement": "PRNT Emax, VACV MV+C'", "setting": "VACV L1 protein [7]", "value": 71, "unit": "%"}, {"measurement": "PRNT IC50, VACV MV", "setting": "VACV L1 protein [7]", "value": 0.3, "unit": "µg/mL"}, {"measurement": "PRNT IC50, VACV MV+C'", "setting": "VACV L1 protein [7]", "value": 0.7, "unit": "µg/mL"}, {"measurement": "EC50", "setting": "VACV L1 protein [8]", "value": 0.02, "unit": "µg/mL"}]}, {"binder": "B7", "values": [{"measurement": "PRNT Emax, VACV MV+C'", "setting": "VACV D8 protein [9]", "value": 69, "unit": "%"}, {"measurement": "PRNT IC50, VACV MV+C'", "setting": "VACV D8 protein [9]", "value": 0.02, "unit": "µg/mL"}, {"measurement": "EC50", "setting": "VACV D8 protein [10]", "value": 0.04, "unit": "µg/mL"}, {"measurement": "EC50", "setting": "VACV D8 protein [11]", "value": 0.05, "unit": "µg/mL"}]}, {"binder": "B8", "values": [{"measurement": "PRNT Emax, VACV MV", "setting": "VACV L1 protein [7]", "value": 95, "unit": "%"}, {"measurement": "PRNT Emax, VACV MV+C'", "setting": "VACV L1 protein [7]", "value": 80, "unit": "%"}, {"measurement": "PRNT IC50, VACV MV", "setting": "VACV L1 protein [7]", "value": 0.3, "unit": "µg/mL"}, {"measurement": "PRNT IC50, VACV MV+C'", "setting": "VACV L1 protein [7]", "value": 0.7, "unit": "µg/mL"}, {"measurement": "EC50", "setting": "VACV L1 protein [8]", "value": 0.05, "unit": "µg/mL"}]}]}
